Experimental data reported in the supplement of paper PMC9112550, “Optimization of the antimicrobial peptide Bac7 by deep mutational scanning” (BMC Biology, 2022).

tested on: Escherichia coli TOP10; test: shrunken log2 fold change of peptide-encoding DNA abundance (4.5 h post-induction vs induction); higher = less antimicrobial activity (less host growth inhibition); details: time post-induction: 4.5 h; library: site-saturation at positions 5, 18, 19, 20
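Note: peptides expressed intracellularly from a pBAD plasmid library in pooled LB shake-flask culture, induced with 0.3% L-arabinose, DNA abundance read by NGS, three biological replicates, DESeq2 with apeglm shrinkage.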

Point of comparison: RRIRGRPPRLPRPRPRPPDTPRP, “shrunken log2 fold change” value 1. Against it:
- RRIRWRPPRLPRPRPRPREIPRP — lower, 0.426
- RRIRNRPPRLPRPRPRPIDNPRP — lower, -0.0163
- RRIRCRPPRLPRPRPRPAGAPRP — lower, 0.417
- RRIRTRPPRLPRPRPRPISPPRP — lower, -0.357
- RRIRSRPPRLPRPRPRPIRTPRP — lower, -0.207
- RRIRGRPPRLPRPRPRPPSQPRP — within 0.2 log units, 0.882
- RRIRCRPPRLPRPRPRPKCRPRP — lower, -0.281
- RRIRDRPPRLPRPRPRPFWMPRP — lower, 0.0871
- RRIRRRPPRLPRPRPRPQCYPRP — lower, -0.136
- RRIRARPPRLPRPRPRPTRWPRP — lower, 0.539
- RRIRMRPPRLPRPRPRPSSHPRP — lower, 0.0506
- RRIRPRPPRLPRPRPRPRLVPRP — lower, 0.323
- RRIRLRPPRLPRPRPRPIGGPRP — lower, 0.0938
- RRIRDRPPRLPRPRPRPVPVPRP — lower, -0.346
- RRIRERPPRLPRPRPRPLDPPRP — lower, -0.102
- RRIRRRPPRLPRPRPRPLEWPRP — lower, 0.266
- RRIRRRPPRLPRPRPRPYYNPRP — lower, -0.807
- RRIRGRPPRLPRPRPRPRCEPRP — lower, 0.782
- RRIRNRPPRLPRPRPRPNIVPRP — lower, -0.115
- RRIRVRPPRLPRPRPRPCDIPRP — lower, -0.149
- RRIRVRPPRLPRPRPRPIRMPRP — lower, -0.243
- RRIRDRPPRLPRPRPRPRIPPRP — lower, -0.108
- RRIRQRPPRLPRPRPRPTMQPRP — lower, 0.0998
- RRIRERPPRLPRPRPRPDFFPRP — lower, -0.279
- RRIRNRPPRLPRPRPRPMHKPRP — lower, -0.131
- RRIRCRPPRLPRPRPRPICPPRP — lower, -0.148
- RRIRQRPPRLPRPRPRPWEIPRP — lower, -0.00822
- RRIRCRPPRLPRPRPRPRSLPRP — lower, 0.197
- RRIRLRPPRLPRPRPRPQNGPRP — lower, -0.146
- RRIRSRPPRLPRPRPRPPFEPRP — lower, 0.518
- RRIRNRPPRLPRPRPRPYPKPRP — lower, 0.0245
- RRIRCRPPRLPRPRPRPPEWPRP — lower, 0.575
- RRIRYRPPRLPRPRPRPMWGPRP — lower, 0.171
- RRIRIRPPRLPRPRPRPGKMPRP — lower, -0.329
- RRIRPRPPRLPRPRPRPMNGPRP — lower, 0.137
- RRIRKRPPRLPRPRPRPLERPRP — lower, 0.529
- RRIRYRPPRLPRPRPRPLSLPRP — lower, -1.1
- RRIRTRPPRLPRPRPRPPVLPRP — lower, 0.0185
- RRIRPRPPRLPRPRPRPPYAPRP — lower, 0.193
- RRIRLRPPRLPRPRPRPTETPRP — lower, -0.021
- RRIRHRPPRLPRPRPRPDDMPRP — lower, -0.11
- RRIRFRPPRLPRPRPRPNICPRP — lower, -0.252
- RRIRDRPPRLPRPRPRPHIIPRP — lower, -1.27
- RRIRIRPPRLPRPRPRPACVPRP — lower, 0.0215
- RRIRYRPPRLPRPRPRPKSSPRP — lower, -0.147
- RRIRERPPRLPRPRPRPHWDPRP — lower, -0.00134
- RRIRFRPPRLPRPRPRPVHIPRP — lower, 0.0681
- RRIRERPPRLPRPRPRPEAVPRP — lower, 0.292
- RRIRCRPPRLPRPRPRPYQEPRP — lower, -0.276
- RRIRLRPPRLPRPRPRPNVQPRP — lower, -0.275
- RRIRLRPPRLPRPRPRPARTPRP — lower, 0.468
- RRIRRRPPRLPRPRPRPLKGPRP — lower, -0.0966
- RRIRNRPPRLPRPRPRPVDNPRP — lower, 0.104
- RRIRARPPRLPRPRPRPAEYPRP — lower, -0.0257
- RRIRIRPPRLPRPRPRPEYAPRP — lower, -0.0426
- RRIRARPPRLPRPRPRPEERPRP — within 0.2 log units, 1.11
- RRIRFRPPRLPRPRPRPNLGPRP — lower, -0.0272
- RRIRSRPPRLPRPRPRPNKGPRP — lower, -0.413
- RRIRGRPPRLPRPRPRPARLPRP — lower, 0.678
- RRIRWRPPRLPRPRPRPASRPRP — lower, -0.00682
- RRIRCRPPRLPRPRPRPDDIPRP — lower, 0.0301
- RRIRVRPPRLPRPRPRPKQSPRP — lower, 0.0123
- RRIRERPPRLPRPRPRPASFPRP — lower, -0.285
- RRIRQRPPRLPRPRPRPVKIPRP — lower, 0.352
- RRIRMRPPRLPRPRPRPTWWPRP — lower, 0.596
- RRIRVRPPRLPRPRPRPPRHPRP — lower, 0.252
- RRIRRRPPRLPRPRPRPTGDPRP — lower, 0.0418
- RRIRIRPPRLPRPRPRPDLVPRP — lower, -0.201
- RRIRVRPPRLPRPRPRPFELPRP — lower, 0.0193
- RRIRYRPPRLPRPRPRPAFSPRP — lower, 0.0115
- RRIRRRPPRLPRPRPRPIIIPRP — lower, 0.0103
- RRIRSRPPRLPRPRPRPLLYPRP — lower, -0.162
- RRIRQRPPRLPRPRPRPNDFPRP — lower, 0.0233
- RRIRPRPPRLPRPRPRPQIDPRP — lower, -0.0108
